# Reference: publication doi:10.1101/647354
# Molecular target: complement C5 (human) (UniProt P01031)
# Experiment: SPR
# Sequence of complement C5 (human) (P01031 19-673, chain 1 of 2): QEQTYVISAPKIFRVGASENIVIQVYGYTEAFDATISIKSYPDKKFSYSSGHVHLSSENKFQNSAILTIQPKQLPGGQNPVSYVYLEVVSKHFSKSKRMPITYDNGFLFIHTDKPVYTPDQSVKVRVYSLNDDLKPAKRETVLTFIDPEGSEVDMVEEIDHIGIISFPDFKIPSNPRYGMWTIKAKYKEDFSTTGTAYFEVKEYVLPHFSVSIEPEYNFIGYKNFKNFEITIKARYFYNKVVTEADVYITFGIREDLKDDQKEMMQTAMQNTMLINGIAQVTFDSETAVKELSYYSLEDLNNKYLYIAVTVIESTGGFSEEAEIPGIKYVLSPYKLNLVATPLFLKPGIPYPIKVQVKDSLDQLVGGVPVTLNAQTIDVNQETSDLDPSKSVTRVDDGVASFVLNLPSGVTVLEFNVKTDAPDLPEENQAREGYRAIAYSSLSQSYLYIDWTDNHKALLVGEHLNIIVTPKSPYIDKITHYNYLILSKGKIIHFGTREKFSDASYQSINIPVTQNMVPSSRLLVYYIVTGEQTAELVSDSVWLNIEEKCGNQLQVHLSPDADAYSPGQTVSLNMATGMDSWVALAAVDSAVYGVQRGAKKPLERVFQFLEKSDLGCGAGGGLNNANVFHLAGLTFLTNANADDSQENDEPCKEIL
# Sequence of complement C5 (human) (P01031 678-1676, chain 2 of 2): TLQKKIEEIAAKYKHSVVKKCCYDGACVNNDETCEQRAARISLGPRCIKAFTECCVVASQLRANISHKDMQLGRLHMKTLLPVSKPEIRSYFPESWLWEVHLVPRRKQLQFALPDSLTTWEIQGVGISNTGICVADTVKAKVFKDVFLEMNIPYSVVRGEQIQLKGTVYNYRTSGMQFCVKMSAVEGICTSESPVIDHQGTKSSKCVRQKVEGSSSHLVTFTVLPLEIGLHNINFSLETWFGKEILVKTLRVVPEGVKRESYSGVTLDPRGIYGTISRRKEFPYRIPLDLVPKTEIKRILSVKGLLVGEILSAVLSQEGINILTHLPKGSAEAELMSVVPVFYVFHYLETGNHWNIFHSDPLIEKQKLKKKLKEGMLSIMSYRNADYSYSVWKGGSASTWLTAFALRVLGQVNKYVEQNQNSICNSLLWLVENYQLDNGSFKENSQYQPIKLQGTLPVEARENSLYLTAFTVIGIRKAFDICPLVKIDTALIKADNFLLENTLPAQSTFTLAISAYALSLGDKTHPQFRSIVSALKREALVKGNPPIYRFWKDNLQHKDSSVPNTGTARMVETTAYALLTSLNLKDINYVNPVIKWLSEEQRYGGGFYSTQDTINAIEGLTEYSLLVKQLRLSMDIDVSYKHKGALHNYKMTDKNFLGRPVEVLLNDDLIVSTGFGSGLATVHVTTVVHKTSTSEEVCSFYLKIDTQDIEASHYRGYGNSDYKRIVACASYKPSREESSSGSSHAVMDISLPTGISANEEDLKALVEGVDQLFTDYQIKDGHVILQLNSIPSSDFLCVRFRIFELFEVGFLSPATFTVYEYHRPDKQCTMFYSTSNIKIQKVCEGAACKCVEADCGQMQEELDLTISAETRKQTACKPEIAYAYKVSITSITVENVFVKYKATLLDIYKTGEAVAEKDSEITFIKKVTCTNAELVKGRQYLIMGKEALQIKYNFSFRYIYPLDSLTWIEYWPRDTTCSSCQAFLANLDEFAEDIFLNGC
substance,measurement,value
CirpT1 (Complement Inhibitor from Rhipicephalus pulchellus of the Terminal Pathway 1) (natural protein),Kd,10 nM
